From patent publication US20230295327A1 (KANAPH THERAPEUTICS, published 2023) come the findings set out here.

The target of experiment [1] is IL-12 receptor of human T cells (human, UniProt P42701 24-662; Q99665 24-862). Description: cell-based or functional assay.
The target of experiment [2] is T1, human CD20 on Raji and Ramos cells (human, UniProt P11836 1-297).
T1 sequence (looked up): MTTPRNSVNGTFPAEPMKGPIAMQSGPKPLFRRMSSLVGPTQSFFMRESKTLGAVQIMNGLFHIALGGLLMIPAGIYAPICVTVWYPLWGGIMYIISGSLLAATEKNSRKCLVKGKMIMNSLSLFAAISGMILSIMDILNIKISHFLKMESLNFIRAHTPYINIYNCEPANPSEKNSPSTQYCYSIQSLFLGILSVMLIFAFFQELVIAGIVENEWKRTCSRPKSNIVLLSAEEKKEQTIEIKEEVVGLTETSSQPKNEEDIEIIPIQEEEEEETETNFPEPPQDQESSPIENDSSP
Description: cell-based or functional assay.

Sequence of IL-12 receptor of human T cells (Q99665 24-862, chain 2 of 2, other chains not shown): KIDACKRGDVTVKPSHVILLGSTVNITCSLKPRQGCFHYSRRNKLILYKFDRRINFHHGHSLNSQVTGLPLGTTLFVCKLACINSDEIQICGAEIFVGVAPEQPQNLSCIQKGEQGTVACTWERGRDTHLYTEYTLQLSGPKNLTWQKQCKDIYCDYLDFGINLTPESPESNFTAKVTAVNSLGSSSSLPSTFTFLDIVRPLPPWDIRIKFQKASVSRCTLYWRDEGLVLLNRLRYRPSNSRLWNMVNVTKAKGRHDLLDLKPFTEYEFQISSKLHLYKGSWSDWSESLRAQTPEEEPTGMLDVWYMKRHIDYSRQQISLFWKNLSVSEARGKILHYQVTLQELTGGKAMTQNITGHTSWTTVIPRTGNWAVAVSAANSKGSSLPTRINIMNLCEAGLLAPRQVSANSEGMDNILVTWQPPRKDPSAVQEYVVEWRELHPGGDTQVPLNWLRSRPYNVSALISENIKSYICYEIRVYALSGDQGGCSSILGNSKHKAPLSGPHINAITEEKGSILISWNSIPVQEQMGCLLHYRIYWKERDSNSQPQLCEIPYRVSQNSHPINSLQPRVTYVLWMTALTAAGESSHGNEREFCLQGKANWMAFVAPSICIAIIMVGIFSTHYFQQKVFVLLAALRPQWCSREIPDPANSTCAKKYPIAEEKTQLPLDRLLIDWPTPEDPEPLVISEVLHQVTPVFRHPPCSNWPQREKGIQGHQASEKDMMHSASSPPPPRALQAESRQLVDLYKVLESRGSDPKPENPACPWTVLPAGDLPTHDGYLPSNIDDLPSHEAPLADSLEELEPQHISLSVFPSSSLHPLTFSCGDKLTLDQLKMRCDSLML

B1: T2.01 (anti-hu CD20/hu IL-12, hu IgG1) (bispecific antibody)
heavy: not shown
light: QIVLSQSPAILSASPGEKVTMTCRASSSVSYIHWFQQKPGSSPKPWIYATSNLASGVPVRFSGSGSGTSYSLTISRVEAEDAATYYCQQWTSNPPTFGGGTKLEIKRTVAAPSVFIFPPSDEQLKSGTASVVCLLNNFYPREAKVQWKVDNALQSGNSQESVTEQDSKDSTYSLSSTLTLSKADYEKHKVYACEVTHQGLSSPVTKSFNRGEC
chain: not shown
In the case of B1, in experiment [1], the “p-STAT4 (Tyr693) AlphaLISA in activated human T cells, EC50” value was found to be 0.555 ng/mL.

B2: T2.02 (anti-hu CD20/hu IL-12 mut1, hu IgG1) (bispecific antibody)
heavy: not shown
light: QIVLSQSPAILSASPGEKVTMTCRASSSVSYIHWFQQKPGSSPKPWIYATSNLASGVPVRFSGSGSGTSYSLTISRVEAEDAATYYCQQWTSNPPTFGGGTKLEIKRTVAAPSVFIFPPSDEQLKSGTASVVCLLNNFYPREAKVQWKVDNALQSGNSQESVTEQDSKDSTYSLSSTLTLSKADYEKHKVYACEVTHQGLSSPVTKSFNRGEC
chain: not shown
With B2, in experiment [1], the “p-STAT4 (Tyr693) AlphaLISA in activated human T cells, EC50” value turned out to be 1.55 ng/mL.

B3: Rituximab (anti-hu CD20 monoclonal antibody) (antibody, human IgG1, kappa, V domains shown)
VH: QVQLQQPGAELVKPGASVKMSCKASGYTFTSYNMHWVKQTPGRGLEWIGAIYPGNGDTSYNQKFKGKATLTADKSSSTAYMQLSSLTSEDSAVYYCARSTYYGGDWYFNVWGAGTTVTVSA
VL: QIVLSQSPAILSASPGEKVTMTCRASSSVSYIHWFQQKPGSSPKPWIYATSNLASGVPVRFSGSGSGTSYSLTISRVEAEDAATYYCQQWTSNPPTFGGGTKLEIKR
As for B3, the “ADCC Reporter Bioassay on Raji target cells, 50% effective concentration (EC50)” value in experiment [2] worked out at 31100 ng/mL.
